Source: publication PMC2430192, “Identification of immune genes and proteins involved in the response of bovine mammary tissue to Staphylococcus aureus infection” (BMC Veterinary Research, 2008)
Where “and” joins values, the source holds several entries; their conditions need not be identical. Equal entries are not always repeated.

Key:
[1] = molecular target: the molecule itself; assay: SDS-PAGE and immunoblot; 25 μl of milk whey from infected udder quarters, run under reducing conditions; detected with immunoaffinity-purified antibodies raised to rS100A12 or rPTX3
[2] = molecular target: the molecule itself; assay: SEC; gel permeation chromatography of purified rtnPTX3 in solution; result not shown
human C1q = molecular target: T1, human C1q (human, UniProt P02745 23-245; P02746 28-253; P02747 29-245); assay: ELISA; 500 ng human C1q coated on 96-well plates in PBS pH 7.4 with 1 mM CaCl2 and 1 mM MgCl2; rtnPTX3 (12.5 ng/well, two preparations) added in PBS-Tween 20, 1 h at 37°C; bound rtnPTX3 detected with rabbit antibody raised to rPTX3; conditions: both partners purified
T1 construct: Complement C1q subcomponent subunit A, human; Complement C1q subcomponent subunit B, human; Complement C1q subcomponent subunit C, human; also called C1q component of the human complement system; source: bought: Merck; copies: + +

[3] = molecular target: the molecule itself; assay: SDS-PAGE and immunoblot; culture supernatant of transfected Trichoplusia ni cells, reducing conditions; results not shown

T1 sequence (P02745 23-245, chain 1 of 3): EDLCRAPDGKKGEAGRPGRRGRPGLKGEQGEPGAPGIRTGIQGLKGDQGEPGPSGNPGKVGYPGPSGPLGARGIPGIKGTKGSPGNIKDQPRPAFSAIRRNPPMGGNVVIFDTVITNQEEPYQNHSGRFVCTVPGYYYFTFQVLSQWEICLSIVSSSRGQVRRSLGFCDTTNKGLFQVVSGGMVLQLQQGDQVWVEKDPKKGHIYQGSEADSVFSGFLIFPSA
T1 sequence (P02746 28-253, chain 2 of 3): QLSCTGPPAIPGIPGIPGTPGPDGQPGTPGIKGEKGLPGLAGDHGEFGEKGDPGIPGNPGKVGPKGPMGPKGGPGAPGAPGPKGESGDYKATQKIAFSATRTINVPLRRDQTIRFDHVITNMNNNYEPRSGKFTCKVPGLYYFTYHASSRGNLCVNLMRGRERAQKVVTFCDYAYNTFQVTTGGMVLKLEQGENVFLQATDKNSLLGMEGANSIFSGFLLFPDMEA
T1 sequence (P02747 29-245, chain 3 of 3): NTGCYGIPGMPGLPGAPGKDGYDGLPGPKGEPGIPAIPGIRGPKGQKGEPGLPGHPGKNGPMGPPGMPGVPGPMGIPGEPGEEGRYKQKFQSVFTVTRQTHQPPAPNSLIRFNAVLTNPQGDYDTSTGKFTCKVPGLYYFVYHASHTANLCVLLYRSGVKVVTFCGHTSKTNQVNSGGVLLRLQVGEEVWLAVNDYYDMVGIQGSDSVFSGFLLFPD

binding result (human C1q) | Binder | stoichiometry N [1] | stoichiometry N [2] | stoichiometry N [3]
– | S100 calcium-binding protein A12 (S100A12), endogenous in bovine milk whey (natural protein, bovine (endogenous in milk whey), UniProt P79105 1-92, looked up, 92 amino acids, predicted size 10.7 kDa; also called calgranulin C; source: endogenous, milk whey from udder quarters infected with S. aureus) MTKLEDHLEGIINIFHQYSVRVGHFDTLNKRELKQLITKELPKTLQNTKDQPTIDKIFQDLDADKDGAVSFEEFVVLVSRVLKTAHIDIHKE | 2 and 3 | – | –
binds | Recombinant bovine PTX3 (rtnPTX3) produced in Trichoplusia ni insect cells (natural protein, UniProt Q0VCG9 18-382, looked up, predicted size of the mature protein 40.2 kDa; The vector pIEx5 supplies the signal peptide of adipokinetic hormone for secretion; A few vector-derived residues at the N-terminus cannot be excluded; Two bands of 43 and 45 kDa, possibly differing in glycosylation at N221; also called Pentraxin-3; source: Trichoplusia ni (High Five) insect cells, transiently transfected with pIEX5-PTX3, secreted …) ENSDDYELMYVNLDNEIDNGLHPTEDPTPCDCSRENSEWDKLFTMLENSQMREGMLLQATDVMLRGELQKLQAELGRLEGSLQKLCGPEAPSETRLARALDDLLQASRDAGRRLARLEDAGALRPQEEAGRALGAVLEELRRTRADLRAVQGWAASRWLPAGCETAILFPMRSKKIFASVHPVTPMKLETFSACIWVKATEVLNKTVLFSYGTKRNPYEIQLYLSYRSIMLVVGGEENRLVADAVISLGTWTHLCSTWDSKKGHMALWVNGDSVATAVDMATGHVVPEGGILQIGQEKNGCCVGGGFDETLAFSGRLTGFNIWEGVLSNEEIREAGGAESCHIRGNVVGWGVTEIQPHGGAQYVY | – | 10 | 2
– | Pentraxin-3 (PTX3), endogenous in bovine milk whey (natural protein, bovine (endogenous in milk whey), UniProt Q0VCG9 18-382, looked up, Pentraxin-3 (PTX3), bovine, secreted into milk; predicted Mw of the mature protein 40.2 kDa; one potential N-linked glycosylation site (Asn221); source: endogenous, milk whey from udder quarters infected with S. aureus) ENSDDYELMYVNLDNEIDNGLHPTEDPTPCDCSRENSEWDKLFTMLENSQMREGMLLQATDVMLRGELQKLQAELGRLEGSLQKLCGPEAPSETRLARALDDLLQASRDAGRRLARLEDAGALRPQEEAGRALGAVLEELRRTRADLRAVQGWAASRWLPAGCETAILFPMRSKKIFASVHPVTPMKLETFSACIWVKATEVLNKTVLFSYGTKRNPYEIQLYLSYRSIMLVVGGEENRLVADAVISLGTWTHLCSTWDSKKGHMALWVNGDSVATAVDMATGHVVPEGGILQIGQEKNGCCVGGGFDETLAFSGRLTGFNIWEGVLSNEEIREAGGAESCHIRGNVVGWGVTEIQPHGGAQYVY | 2 | – | –
